Reference: article PMC8298602 (2021)

Experiments:
[1] = target: Nedd^335-455pT367 + pS448 (human, UniProt Q96PU5 335-455, S342A, phosphothreonine at 367, phosphoserine at 448); assay: AUC
[2] = target: Nedd^335-455pS342 + pT367 (human, UniProt Q96PU5 335-455, S448A, phosphoserine at 342, phosphothreonine at 367); assay: AUC

Kd [1]: 170 nM | Kd [2]: 200 nM
B1: 14-3-3η (natural protein)
chain: MGDREQLLQRARLAEQAERYDDMASAMKAVTELNEPLSNEDRNLLSVAYKNVVGARRSSWRVISSIEQKTMADGNEKKLEKVKAYREKIEKELETVCNDVLSLLDKFLIKNCNDFQYESKVFYLKMKGDYYRYLAEVASGEKKNSVVEASEAAYKEAFEISKEQMQPTHPIRLGLALNFSVFYYEIQNAPEQACLLAKQAFDDAIAELDTLNEDSYKDSTLIMQLLRDNLTLWTSDQQDEEAGEGN
